In patent US20150218281A1 (Ablynx, published 2015):

Molecular target: T1, biotinylated hOX40L (R&D Systems, biotinylated in house) (human, UniProt P23510 51-183, biotinylated with Sulfo-NHS-LC-Biotin, sites not stated)
T1 construct: same bought protein as m10, biotinylated; also called biotinylated OX40L
T1 sequence: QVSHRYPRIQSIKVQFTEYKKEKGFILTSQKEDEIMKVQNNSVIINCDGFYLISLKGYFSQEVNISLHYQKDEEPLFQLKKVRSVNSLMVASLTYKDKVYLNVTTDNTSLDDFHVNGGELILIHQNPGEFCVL
Test: hOX40L/hOX40 AlphaScreen, assay 2, native
Procedure: Next, streptavidin donor beads were added and incubated for an additional 1 hour. Fluorescence was measured by reading plates on the EnVision Multilabel Plate Reader using an excitation wavelength of 680 nm and an emission wavelength of 520 nm.
In the TSA assay, Nanobodies were diluted to a concentration of 0.2 mg/ml and melting temperature (Tm) was determined at different pH by stepwise increase in temperature in presence of Sypro Orange, a dye that binds to […] residues that become exposed upon unfolding of the protein, using the Lightcycler (Roche) for detection. […] In SEC analysis, the Nanobodies were analyzed on a Phenomenex matrix to allow detection of multimers, aggregates or ‘stickyness’.

IC50: 0.066 nM
B1: OX40L15B07 (VHH)
VHH: EVQLVESGGGLVQAGGSLRLSCAASRSIGRLDRMGWYRHRTGEPRELVATITGGSSINYGDFVKGRFTISIDNAKNTVYLQMNNLKPEDTAVYYCNFNKYVTSRDTWGQGTQVTVSS
notes: monovalent Nanobody from E. coli; not shown: C-terminal c-myc and His6 tag
